Measured values published in patent US20150344570A1 (published 2015).

Molecular target: T1, FcγRIa (human, UniProt P12314 16-292)
T1 construct: extracellular domain; soluble extracellular domain with C-terminal His tag, expressed in FreeStyle293 cells; also called FcgRI; FcgRIa
Assay: SPR (Biacore), captured antibody, FcγRIa analyte; relative to HeCon Ab GpH7-A5/GpH7-B3/GpL16-k0 = 100

T1 sequence (P12314 16-292): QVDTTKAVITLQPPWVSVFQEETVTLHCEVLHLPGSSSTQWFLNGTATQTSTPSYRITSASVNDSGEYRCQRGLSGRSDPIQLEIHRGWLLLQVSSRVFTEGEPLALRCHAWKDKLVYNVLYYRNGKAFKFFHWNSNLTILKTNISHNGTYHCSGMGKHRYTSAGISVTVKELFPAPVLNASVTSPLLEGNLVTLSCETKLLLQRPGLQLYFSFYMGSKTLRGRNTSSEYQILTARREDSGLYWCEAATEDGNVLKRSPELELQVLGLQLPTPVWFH

Binder	He/Con_1a
GpH7-A5/GpH7-B3 variant A327_09D/GpL16-k0 (antibody, human IgG1, kappa, heterodimerized IgG1, mutation in one H chain; also called He Ab) heavy 1: not shown heavy 2: not shown light: DIVMTQSPLSLPVTPGEPASISCQASESLVHSNRNTYLHWYLQKPGQSPQLLIYKVSNRFSGVPDRFSGSGSGTDFTLKISRVEAEDVGVYYCSQNTHVPPTFGQGTKVEIERTVAAPSVFIFPPSDEQLKSGTASVVCLLNNFYPREAKVQWKVDNALQSGNSQESVTEQDSKDSTYSLSSTLTLSKADYEKHKVYACEVTHQGLSSPVTKSFNRGEC	103 % of control
GpH7-A5/GpH7-B3 variant I336_01G/GpL16-k0 (antibody, human IgG1, kappa, heterodimerized IgG1, mutation in one H chain; also called He Ab) heavy 1: not shown heavy 2: not shown light: DIVMTQSPLSLPVTPGEPASISCQASESLVHSNRNTYLHWYLQKPGQSPQLLIYKVSNRFSGVPDRFSGSGSGTDFTLKISRVEAEDVGVYYCSQNTHVPPTFGQGTKVEIERTVAAPSVFIFPPSDEQLKSGTASVVCLLNNFYPREAKVQWKVDNALQSGNSQESVTEQDSKDSTYSLSSTLTLSKADYEKHKVYACEVTHQGLSSPVTKSFNRGEC	109 % of control
GpH7-A5/GpH7-B3 variant I336_10E/GpL16-k0 (antibody, human IgG1, kappa, heterodimerized IgG1, mutation in one H chain; also called He Ab) heavy 1: not shown heavy 2: not shown light: DIVMTQSPLSLPVTPGEPASISCQASESLVHSNRNTYLHWYLQKPGQSPQLLIYKVSNRFSGVPDRFSGSGSGTDFTLKISRVEAEDVGVYYCSQNTHVPPTFGQGTKVEIERTVAAPSVFIFPPSDEQLKSGTASVVCLLNNFYPREAKVQWKVDNALQSGNSQESVTEQDSKDSTYSLSSTLTLSKADYEKHKVYACEVTHQGLSSPVTKSFNRGEC	108 % of control
GpH7-A5/GpH7-B3 variant K326_14T/GpL16-k0 (antibody, human IgG1, kappa, heterodimerized IgG1, mutation in one H chain; also called He Ab) heavy 1: not shown heavy 2: not shown light: DIVMTQSPLSLPVTPGEPASISCQASESLVHSNRNTYLHWYLQKPGQSPQLLIYKVSNRFSGVPDRFSGSGSGTDFTLKISRVEAEDVGVYYCSQNTHVPPTFGQGTKVEIERTVAAPSVFIFPPSDEQLKSGTASVVCLLNNFYPREAKVQWKVDNALQSGNSQESVTEQDSKDSTYSLSSTLTLSKADYEKHKVYACEVTHQGLSSPVTKSFNRGEC	104 % of control
GpH7-A5/GpH7-B3 variant I336_03V/GpL16-k0 (antibody, human IgG1, kappa, heterodimerized IgG1, mutation in one H chain; also called He Ab) heavy 1: not shown heavy 2: not shown light: DIVMTQSPLSLPVTPGEPASISCQASESLVHSNRNTYLHWYLQKPGQSPQLLIYKVSNRFSGVPDRFSGSGSGTDFTLKISRVEAEDVGVYYCSQNTHVPPTFGQGTKVEIERTVAAPSVFIFPPSDEQLKSGTASVVCLLNNFYPREAKVQWKVDNALQSGNSQESVTEQDSKDSTYSLSSTLTLSKADYEKHKVYACEVTHQGLSSPVTKSFNRGEC	105 % of control
GpH7-A5/GpH7-B3 variant E269_08L/GpL16-k0 (antibody, human IgG1, kappa, heterodimerized IgG1, mutation in one H chain; also called He Ab) heavy 1: not shown heavy 2: not shown light: DIVMTQSPLSLPVTPGEPASISCQASESLVHSNRNTYLHWYLQKPGQSPQLLIYKVSNRFSGVPDRFSGSGSGTDFTLKISRVEAEDVGVYYCSQNTHVPPTFGQGTKVEIERTVAAPSVFIFPPSDEQLKSGTASVVCLLNNFYPREAKVQWKVDNALQSGNSQESVTEQDSKDSTYSLSSTLTLSKADYEKHKVYACEVTHQGLSSPVTKSFNRGEC	104 % of control
GpH7-A5/GpH7-B3 variant A330_08L/GpL16-k0 (antibody, human IgG1, kappa, heterodimerized IgG1, mutation in one H chain; also called He Ab) heavy 1: not shown heavy 2: not shown light: DIVMTQSPLSLPVTPGEPASISCQASESLVHSNRNTYLHWYLQKPGQSPQLLIYKVSNRFSGVPDRFSGSGSGTDFTLKISRVEAEDVGVYYCSQNTHVPPTFGQGTKVEIERTVAAPSVFIFPPSDEQLKSGTASVVCLLNNFYPREAKVQWKVDNALQSGNSQESVTEQDSKDSTYSLSSTLTLSKADYEKHKVYACEVTHQGLSSPVTKSFNRGEC	107 % of control
GpH7-A5/GpH7-B3 variant G236_20W/GpL16-k0 (antibody, human IgG1, kappa, heterodimerized IgG1, mutation in one H chain; also called He Ab) heavy 1: not shown heavy 2: not shown light: DIVMTQSPLSLPVTPGEPASISCQASESLVHSNRNTYLHWYLQKPGQSPQLLIYKVSNRFSGVPDRFSGSGSGTDFTLKISRVEAEDVGVYYCSQNTHVPPTFGQGTKVEIERTVAAPSVFIFPPSDEQLKSGTASVVCLLNNFYPREAKVQWKVDNALQSGNSQESVTEQDSKDSTYSLSSTLTLSKADYEKHKVYACEVTHQGLSSPVTKSFNRGEC	105 % of control
GpH7-A5/GpH7-B3 variant E269_04F/GpL16-k0 (antibody, human IgG1, kappa, heterodimerized IgG1, mutation in one H chain; also called He Ab) heavy 1: not shown heavy 2: not shown light: DIVMTQSPLSLPVTPGEPASISCQASESLVHSNRNTYLHWYLQKPGQSPQLLIYKVSNRFSGVPDRFSGSGSGTDFTLKISRVEAEDVGVYYCSQNTHVPPTFGQGTKVEIERTVAAPSVFIFPPSDEQLKSGTASVVCLLNNFYPREAKVQWKVDNALQSGNSQESVTEQDSKDSTYSLSSTLTLSKADYEKHKVYACEVTHQGLSSPVTKSFNRGEC	103 % of control
GpH7-A5/GpH7-B3 variant K334_10E/GpL16-k0 (antibody, human IgG1, kappa, heterodimerized IgG1, mutation in one H chain; also called He Ab) heavy 1: not shown heavy 2: not shown light: DIVMTQSPLSLPVTPGEPASISCQASESLVHSNRNTYLHWYLQKPGQSPQLLIYKVSNRFSGVPDRFSGSGSGTDFTLKISRVEAEDVGVYYCSQNTHVPPTFGQGTKVEIERTVAAPSVFIFPPSDEQLKSGTASVVCLLNNFYPREAKVQWKVDNALQSGNSQESVTEQDSKDSTYSLSSTLTLSKADYEKHKVYACEVTHQGLSSPVTKSFNRGEC	110 % of control
GpH7-A5/GpH7-B3 variant I336_02A/GpL16-k0 (antibody, human IgG1, kappa, heterodimerized IgG1, mutation in one H chain; also called He Ab) heavy 1: not shown heavy 2: not shown light: DIVMTQSPLSLPVTPGEPASISCQASESLVHSNRNTYLHWYLQKPGQSPQLLIYKVSNRFSGVPDRFSGSGSGTDFTLKISRVEAEDVGVYYCSQNTHVPPTFGQGTKVEIERTVAAPSVFIFPPSDEQLKSGTASVVCLLNNFYPREAKVQWKVDNALQSGNSQESVTEQDSKDSTYSLSSTLTLSKADYEKHKVYACEVTHQGLSSPVTKSFNRGEC	106 % of control
GpH7-A5/GpH7-B3 variant K326_16H/GpL16-k0 (antibody, human IgG1, kappa, heterodimerized IgG1, mutation in one H chain; also called He Ab) heavy 1: not shown heavy 2: not shown light: DIVMTQSPLSLPVTPGEPASISCQASESLVHSNRNTYLHWYLQKPGQSPQLLIYKVSNRFSGVPDRFSGSGSGTDFTLKISRVEAEDVGVYYCSQNTHVPPTFGQGTKVEIERTVAAPSVFIFPPSDEQLKSGTASVVCLLNNFYPREAKVQWKVDNALQSGNSQESVTEQDSKDSTYSLSSTLTLSKADYEKHKVYACEVTHQGLSSPVTKSFNRGEC	103 % of control
GpH7-A5/GpH7-B3 variant I336_04F/GpL16-k0 (antibody, human IgG1, kappa, heterodimerized IgG1, mutation in one H chain; also called He Ab) heavy 1: not shown heavy 2: not shown light: DIVMTQSPLSLPVTPGEPASISCQASESLVHSNRNTYLHWYLQKPGQSPQLLIYKVSNRFSGVPDRFSGSGSGTDFTLKISRVEAEDVGVYYCSQNTHVPPTFGQGTKVEIERTVAAPSVFIFPPSDEQLKSGTASVVCLLNNFYPREAKVQWKVDNALQSGNSQESVTEQDSKDSTYSLSSTLTLSKADYEKHKVYACEVTHQGLSSPVTKSFNRGEC	106 % of control
GpH7-A5/GpH7-B3 variant E269_15Y/GpL16-k0 (antibody, human IgG1, kappa, heterodimerized IgG1, mutation in one H chain; also called He Ab) heavy 1: not shown heavy 2: not shown light: DIVMTQSPLSLPVTPGEPASISCQASESLVHSNRNTYLHWYLQKPGQSPQLLIYKVSNRFSGVPDRFSGSGSGTDFTLKISRVEAEDVGVYYCSQNTHVPPTFGQGTKVEIERTVAAPSVFIFPPSDEQLKSGTASVVCLLNNFYPREAKVQWKVDNALQSGNSQESVTEQDSKDSTYSLSSTLTLSKADYEKHKVYACEVTHQGLSSPVTKSFNRGEC	106 % of control
GpH7-A5/GpH7-B3 variant A330_14T/GpL16-k0 (antibody, human IgG1, kappa, heterodimerized IgG1, mutation in one H chain; also called He Ab) heavy 1: not shown heavy 2: not shown light: DIVMTQSPLSLPVTPGEPASISCQASESLVHSNRNTYLHWYLQKPGQSPQLLIYKVSNRFSGVPDRFSGSGSGTDFTLKISRVEAEDVGVYYCSQNTHVPPTFGQGTKVEIERTVAAPSVFIFPPSDEQLKSGTASVVCLLNNFYPREAKVQWKVDNALQSGNSQESVTEQDSKDSTYSLSSTLTLSKADYEKHKVYACEVTHQGLSSPVTKSFNRGEC	105 % of control
GpH7-A5/GpH7-B3 variant E333_01G/GpL16-k0 (antibody, human IgG1, kappa, heterodimerized IgG1, mutation in one H chain; also called He Ab) heavy 1: not shown heavy 2: not shown light: DIVMTQSPLSLPVTPGEPASISCQASESLVHSNRNTYLHWYLQKPGQSPQLLIYKVSNRFSGVPDRFSGSGSGTDFTLKISRVEAEDVGVYYCSQNTHVPPTFGQGTKVEIERTVAAPSVFIFPPSDEQLKSGTASVVCLLNNFYPREAKVQWKVDNALQSGNSQESVTEQDSKDSTYSLSSTLTLSKADYEKHKVYACEVTHQGLSSPVTKSFNRGEC	103 % of control
GpH7-A5/GpH7-B3 variant E269_06M/GpL16-k0 (antibody, human IgG1, kappa, heterodimerized IgG1, mutation in one H chain; also called He Ab) heavy 1: not shown heavy 2: not shown light: DIVMTQSPLSLPVTPGEPASISCQASESLVHSNRNTYLHWYLQKPGQSPQLLIYKVSNRFSGVPDRFSGSGSGTDFTLKISRVEAEDVGVYYCSQNTHVPPTFGQGTKVEIERTVAAPSVFIFPPSDEQLKSGTASVVCLLNNFYPREAKVQWKVDNALQSGNSQESVTEQDSKDSTYSLSSTLTLSKADYEKHKVYACEVTHQGLSSPVTKSFNRGEC	104 % of control
GpH7-A5/GpH7-B3 variant I336_18N/GpL16-k0 (antibody, human IgG1, kappa, heterodimerized IgG1, mutation in one H chain; also called He Ab) heavy 1: not shown heavy 2: not shown light: DIVMTQSPLSLPVTPGEPASISCQASESLVHSNRNTYLHWYLQKPGQSPQLLIYKVSNRFSGVPDRFSGSGSGTDFTLKISRVEAEDVGVYYCSQNTHVPPTFGQGTKVEIERTVAAPSVFIFPPSDEQLKSGTASVVCLLNNFYPREAKVQWKVDNALQSGNSQESVTEQDSKDSTYSLSSTLTLSKADYEKHKVYACEVTHQGLSSPVTKSFNRGEC	108 % of control
GpH7-A5/GpH7-B3 variant E333_13S/GpL16-k0 (antibody, human IgG1, kappa, heterodimerized IgG1, mutation in one H chain; also called He Ab) heavy 1: not shown heavy 2: not shown light: DIVMTQSPLSLPVTPGEPASISCQASESLVHSNRNTYLHWYLQKPGQSPQLLIYKVSNRFSGVPDRFSGSGSGTDFTLKISRVEAEDVGVYYCSQNTHVPPTFGQGTKVEIERTVAAPSVFIFPPSDEQLKSGTASVVCLLNNFYPREAKVQWKVDNALQSGNSQESVTEQDSKDSTYSLSSTLTLSKADYEKHKVYACEVTHQGLSSPVTKSFNRGEC	103 % of control
GpH7-A5/GpH7-B3 variant A330_09D/GpL16-k0 (antibody, human IgG1, kappa, heterodimerized IgG1, mutation in one H chain; also called He Ab) heavy 1: not shown heavy 2: not shown light: DIVMTQSPLSLPVTPGEPASISCQASESLVHSNRNTYLHWYLQKPGQSPQLLIYKVSNRFSGVPDRFSGSGSGTDFTLKISRVEAEDVGVYYCSQNTHVPPTFGQGTKVEIERTVAAPSVFIFPPSDEQLKSGTASVVCLLNNFYPREAKVQWKVDNALQSGNSQESVTEQDSKDSTYSLSSTLTLSKADYEKHKVYACEVTHQGLSSPVTKSFNRGEC	109 % of control
GpH7-A5/GpH7-B3 variant I336_06M/GpL16-k0 (antibody, human IgG1, kappa, heterodimerized IgG1, mutation in one H chain; also called He Ab) heavy 1: not shown heavy 2: not shown light: DIVMTQSPLSLPVTPGEPASISCQASESLVHSNRNTYLHWYLQKPGQSPQLLIYKVSNRFSGVPDRFSGSGSGTDFTLKISRVEAEDVGVYYCSQNTHVPPTFGQGTKVEIERTVAAPSVFIFPPSDEQLKSGTASVVCLLNNFYPREAKVQWKVDNALQSGNSQESVTEQDSKDSTYSLSSTLTLSKADYEKHKVYACEVTHQGLSSPVTKSFNRGEC	108 % of control
GpH7-A5/GpH7-B3 variant K326_15Y/GpL16-k0 (antibody, human IgG1, kappa, heterodimerized IgG1, mutation in one H chain; also called He Ab) heavy 1: not shown heavy 2: not shown light: DIVMTQSPLSLPVTPGEPASISCQASESLVHSNRNTYLHWYLQKPGQSPQLLIYKVSNRFSGVPDRFSGSGSGTDFTLKISRVEAEDVGVYYCSQNTHVPPTFGQGTKVEIERTVAAPSVFIFPPSDEQLKSGTASVVCLLNNFYPREAKVQWKVDNALQSGNSQESVTEQDSKDSTYSLSSTLTLSKADYEKHKVYACEVTHQGLSSPVTKSFNRGEC	106 % of control
